In data set [1] the target is NpHtrII (Natronomonas pharaonis) (UniProt P42259). The settings on record: cited from earlier work.
Data set [2] concerns the target T1, NpSRII/NpHtrII1-135 complex (Natronomonas pharaonis, UniProt P42196).
T1 construct: gene sop2; wild-type NpSRII with truncated transducer NpHtrII residues 1-135; produced in E. coli, reconstituted; 2:2 complex; with Sensory rhodopsin II transducer
Kind of data set: X-ray crystallography. The note with it: space group P21212; covalent (retinal Schiff base, Lys205); retinal isomer not stated separately for this crystal. Format: binding.
T1 sequence (P42259 1-135 G83F, form open, one chain of several): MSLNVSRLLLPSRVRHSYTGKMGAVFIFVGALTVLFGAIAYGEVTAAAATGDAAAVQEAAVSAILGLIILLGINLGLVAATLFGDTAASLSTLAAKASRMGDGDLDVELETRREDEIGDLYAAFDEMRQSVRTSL

Data set [3] deals with T2, NpSRII/NpHtrII1-135 complex (Natronomonas pharaonis, UniProt P42196).
T2 construct: gene sop2; wild-type NpSRII with truncated transducer NpHtrII residues 1-135; produced in E. coli, reconstituted; 2:2 complex; with Sensory rhodopsin II transducer
T2 sequence (P42196 2-239): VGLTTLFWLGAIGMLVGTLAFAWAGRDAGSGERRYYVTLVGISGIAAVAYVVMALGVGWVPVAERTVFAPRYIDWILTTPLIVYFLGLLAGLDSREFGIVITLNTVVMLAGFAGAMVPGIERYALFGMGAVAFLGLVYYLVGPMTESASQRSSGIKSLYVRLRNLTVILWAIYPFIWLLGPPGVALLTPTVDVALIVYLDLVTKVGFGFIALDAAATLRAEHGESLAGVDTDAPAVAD
T2 sequence (P42259 1-135 partner): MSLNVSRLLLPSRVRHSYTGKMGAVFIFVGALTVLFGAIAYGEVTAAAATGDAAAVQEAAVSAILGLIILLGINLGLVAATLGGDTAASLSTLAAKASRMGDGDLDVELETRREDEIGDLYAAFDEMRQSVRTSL
Kind of data set: X-ray crystallography. The format is binding. The note with it: ground state; covalent (retinal Schiff base, Lys205); retinal isomer not stated separately for this crystal.

The target in data set [4] is T3, NpSRII/NpHtrII1-157 complex (sensory rhodopsin II with its cognate transducer) (Natronomonas pharaonis, UniProt P42196).
T3 construct: gene sop2; wild-type NpSRII with truncated transducer NpHtrII residues 1-157; produced in E. coli, reconstituted; 2:2 complex; with Sensory rhodopsin II transducer
T3 sequence (P42196 2-239): T2 sequence (P42196 2-239)
T3 sequence (P42259 1-157 partner): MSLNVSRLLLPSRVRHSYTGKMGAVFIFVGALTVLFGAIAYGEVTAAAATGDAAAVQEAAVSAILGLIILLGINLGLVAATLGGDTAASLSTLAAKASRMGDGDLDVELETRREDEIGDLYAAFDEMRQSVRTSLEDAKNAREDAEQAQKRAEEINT
Kind of data set: X-ray crystallography. The note with it: ground state; space group I212121; 1.9 A; in meso crystals, pH 5.6; covalent (retinal Schiff base, Lys205). Format: binding.

Data set [5] deals with T3, NpSRII/NpHtrII1-157 complex (sensory rhodopsin II with its cognate transducer). Kind of data set: X-ray crystallography, trapped M intermediate. Format: binding. The settings on record: active M state, light-induced; space group I212121; 1.9 A; covalent (retinal Schiff base, Lys205).
Data set [6] deals with NpHtrII (Natronomonas pharaonis) (UniProt P42259). The settings on record: cited from earlier work. This is another data set of the same source.
For data set [7], the target named is T4, sensory rhodopsin II from N. pharaonis (NpSRII) (N. pharaonis, UniProt P42196 1-239, retinal bound through a Schiff base (Lys205)).
T4 construct: sensory rhodopsin II (NpSRII), N. pharaonis, wild type; also called the receptor; source: E. coli, purified, reconstituted into a functional complex, and resolubilized
T4 sequence (looked up): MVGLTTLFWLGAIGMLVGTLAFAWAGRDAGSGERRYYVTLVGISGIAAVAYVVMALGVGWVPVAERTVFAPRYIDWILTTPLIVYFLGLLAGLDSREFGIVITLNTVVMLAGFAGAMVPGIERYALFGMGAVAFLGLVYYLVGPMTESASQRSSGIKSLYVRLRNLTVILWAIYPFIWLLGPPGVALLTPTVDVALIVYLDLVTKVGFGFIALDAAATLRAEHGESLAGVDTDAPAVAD
Kind of data set: crystal structure; ground state of the complex with NpHtrII 1-135 (PDB 5JJJ); in meso crystals; space group not tied to this entry in the text (P6_(4) likely). The note with it: both partners purified.

Data set [8] deals with T4, sensory rhodopsin II from N. pharaonis …. Kind of data set: crystal structure; complex with the G83F mutant, space group P2_(1)2_(1)2, "V"-shape; crystallization conditions the same as for the wild type complex in the P6_(4) space group. The note with it: both partners purified.
The target is the same in data set [9]. Kind of data set: crystal structure; ground state, space group I2_(1)2_(1)2_(1), 1.9 Å; in meso crystallization (monooleoyl), 22 °C, 1 M Na/K phosphate pH 5.6, trehalose. The settings on record: both partners purified.
Data set [10] concerns the molecule itself. Described as above.

Substitutions are numbered along the chain they refer to. Names and notes keep the numbering of the source. Like-named read-outs stand apart in the source and are kept apart here.

For orientation: Kd means the constant that tells how readily two partners part at equilibrium. Regarding NpSRII (from UniProt P42196), the Kd in [1] is 0.1 µM.

Turning to `CC1=C(/C=C/C(C)=C/C=C/C(C)=C/C=O)C(C)(C)CCC1` [all-trans retinal], the results for the X-ray crystallography result in data set [2], in data set [3] and in data set [4] were “crystal structure of the NpSRII/NpHtrII1–135-G83F mutant demonstrate different crystal packing”, 5JJJ (NpSRII/HtrII-135 ground state) and “the retinal chromophore switches from all-trans conformation to 13-cis”, respectively.

`CC1=C(/C=C/C(C)=C/C=C/C(C)=C\C=O)C(C)(C)CCC1` [13-cis retinal]: the “X-ray crystallography, trapped M intermediate” value in data set [5] is “the retinal chromophore switches from all-trans conformation to 13-cis”.

With “NpSRII (active state) (from UniProt P42196)”, the Kd in data set [6] is 15 µM.

B1: NpHtrII_(1-135), shortened transducer (domain or fragment, N. pharaonis, UniProt P42259 1-135, looked up)
chain: T2 sequence (P42259 1-135 partner)
notes: source: E. coli, purified, reconstituted into a functional complex, and resolubilized
On to B1, for which, in data set [7], the binding result is “binds”.

B2: NpHtrII_(1-135)-G83F mutant (domain or fragment, N. pharaonis, UniProt P42259 1-135, looked up)
chain: T2 sequence (P42259 1-135 partner) with G83F
notes: as for B1
Turning to B2, the binding result in data set [8] was “binds”.

B3: NpHtrII_(1-157), shortened cognate transducer of NpSRII (domain or fragment, N. pharaonis, UniProt P42259 1-157, looked up)
chain: T3 sequence (P42259 1-157 partner)
notes: NpHtrII, transducer of sensory rhodopsin II, N. pharaonis, residues 1-157 (transmembrane helices TM1 and TM2, HAMP1 and linker); only the transmembrane part is seen in the electron density; also called HtrII-157; the transducer; source: E. coli, purified, reconstituted into a functional complex, and resolubilized
Turning to B3, the binding result in [9] and in [10] was “binds” throughout.
